8 molecules from paper PMC11098746 (2024) can be followed below.

To fix the notation:
B1: 2 (protein)
chain: DFFLRYRTGFIRSRLETYIGNSDVRYNKAFINNRLLNEHAHCDAWSEWSACSKTCDYGIKIRVKISTDQTKSKACSNIAESTICHEHICPRTFEEAEETYLHNKEKEKKKKFRTT
modifications: bait human Fc-tagged dimer
B2: 83 (protein)
chain: NKNLKCNFYYNNNNLATYVIKHNRFLSEYQSNFLGGGYSAALKLVNSKKSGTNVNTKYNSENTNTNNNIPESSSTYTNTRLAANNAATTSTTKVTDNNKANIKLTGNNAATINTNSAENTAATKKVTENVITNQILTGNNNAATNTATTEHNNNINTNTNSAENTAATKKVTENVITNQILTGNNNAATNTATTEHNNNINTNTNSADNSNTNTNLADNTATTKKLTDNINTAQNLATSTNTATVSTDNNNINTKPIDNNNADIKSTDNYNTGTKETDNKNTDIKATDNNNIATTTDNTNTNVISTDNSKTNVISTDNSKTNTISTDNDNADTILTDNDNNADIILTDNNNADTISTDNDNADTKATDNNNNANTKATDNNNAKIISPDNNNAKTTSTDNNNNANTKATDNNNAKTISNDNNNAKTISTDNNNAKTISNDNNNANTISTDNNNNNANQYVFANNYNEATSDDELNKDSCDYSEEKENIKSMINAYLDKLDLETVRKIHSDISTCIEKKNNPRNQITHLNNLKNMYNIIKFIVVIYIAFNWAEVIYKYVGKLILAFALYMLIN
modifications: bait human Fc-tagged dimer
B3: 7 (protein)
chain: GIISGRINIAAEFHINIFVKDYFKKKKLTFVNFVSLCPKGFNIENNKCIPCPIGLYYSNSKSINQCIPCENYRKHSTTLYNSAKSKTECLCKPGYFLKDKRCVKCVAGFYKDQIGNFKCQGTCENTKMSIEVGAKNYEELKCTCKDGYFTEKKKKECIPCPFGNYCIYNPKVKYKADIIRCKNNKLTLHRGSKSPNDCLCSQGYYHDYKMDECELCNYDQYKSHISNDPCVPFISKSLVNQEYLINEPYFQYTNIYIKQTSNIIFAPKKGSKMFHEATLCETGYSYSMNKAICSICRYNNYCLGLDHSSIICPKNSITIKLKSVSALDCLCIKGYGRIIINTNQAFTISCIPCPYNTFQPHHSYGKCIPCPPHTFTKITGATSITECIPKMGYYNIAFEYIYEYSKQQMLNSIPHFIQYYHYFLKNQYEHFA
modifications: bait human Fc-tagged dimer
B4: 30 (protein)
chain: QDNKNKVEETHEEQGEMTQEEKDEIYSEFVDYDLNKDGLIDAEEIVVTLKNMKKADFINFFNKVDLDSSGTISIDEYMLFINSN
modifications: bait human Fc-tagged dimer
B5: 74 (protein)
chain: YNLNNDLSKNNNFALNTYVRKDDVEDDSKNEIVDNIQKMVDDFSDDIGFVKTSMREVLLDTEASLEEVSDHVVQNIAKYSLTIEEKLNLFDGLLEEFIENNKGLISNLAKRQQKLKGDKIKKVCDLILKKLKKLENVNKLIKYKIILKYGNKDNKKEMIQTLKNEEGLSDDFKNNLANYETEQNNDDIKEIELVNFISTNYDKFVVNLEDLNKELLKDLNMALS
modifications: bait human Fc-tagged dimer
B6: 72 (protein)
chain: SNHIKSVNRCFIPFISEYIYKQKNRKNNIAYDSSNSHYNDKIIPCGNYNKQLKYKINFCRNLYFNNKNEYNRICSRNKLNFHNIQTDNTIYKPKKKYYEVGKVREKIKMYTLFKDDKINTLKCNEEESVTSETINKHDSSVKVKGRRKKNIASNENIMNPNNKAVSSINTNLADSSNNKNDNSLNSKKNDNTLNSKKNDNTLNSKKNDNTLNSKNNNNALNSKNNNNALNSKKSNNAYNDKHIDHIIPEGKNKINNNIDVKHNINNKLNEINEEPYEDTHNKEENSANKNDNDEKRKEENNNIARRYIKNDQMSYNNINTNSNEYDKNAATLDETYIGKTFEGYVYSVNKNAACIKLKNINKYGLLFKNKANLGDDIEDMNDFFEKDQPVHVKILGINTKKNIFYLGNIIKYNENIKLSKGEYSKGLITKVCDSYCFIKVLKNGATGYLHKSKLFCMNDKEKKNNDNQNYDNPNNDNPNYDNQNYDNQNYNNPNYDHPNYDNQNYDNQNYNNPNNDYSTSQLYNSDNLQMDFIYKLQFTKIFNIWDIIDVEILGTPQNDYKSNYILTIPRGSKTFKKILNYLNVLKENEDINNIQYKGDYIYSIDNNKNDNIIDSDINNHHINNKKKKKNLYDIQNNMNHAPFNKFHTEDEYLFNDHVQENVHTFYEKNKKYKITYDKENNHKMNKAYYLKKNKELPFNNKFKKIIKNIYDLPNTISLSMLSKTIKIPLASIKKYFIIHENKEYNSAYKINSEQIKRICQHFKIDCNVEQRDDNVVTKVNGATKDCQEKVFKNVAQDRLKEGEQERVIKVEAKIKNDEMVMQEQKDTKEEKHMDVQFIEEKDINVQHINVQDMDVQDMDVQDINVQDMDVQNINVQDINIQDMDVQNINNAITLNKATSCQTDESRDAPGGDQNEALDEKDSMEKSKEKKKKKGKSRKKNKDTNLALKSDSIQKSKTTLDDKKRNVVVTFIGHINHGKTSLFDYICKTNEQKKEYGLITQNIRAFKATVRNNFAFTLVDTPGHEAFMPMRSRGVKISDLSILVISGDEGIQEQTVECIKLIKEFNIKIIIAITKVDIPNVDVDRIINDLLYHDITTELNGGEIQVVECSIYKEESIDKLLDAIYLESEFLNLQTNPDKKHEQAQGVVLDSYIDKNGIVSINLLQNGVLNINDHFYTGSSYGKVKILKDHLNKNIKSAYPSDPIKIIGYNKNSVPVAGDKFYVVENEALAKEIAEHNKNKMLTMEINNFAYDQTNMNRYKDFIISRENKIGGSSGILGENNLKNDIDGNMARDDNMARDDNMASDDNMARDGNRANNDNIASDDNMANDYDKIKETKMYTNNKAFQKDDFLKIHLNNANENVINMDPSTHIGKNEIKTIYSNYIIKCDKQGSIEVLKNCMLKLQKEDSICKIKNKIIYADIGNVASSDIKYATSFNAAIIAFGVKLSNDIKGSKNSKGSKNHNNYPIIYSNVLYELIENVEKEMEKKLSKKPMGELKGTAQILKVFNIAKLGKVAGCIVKKGTISINSNIRILRNDKVIYMGKIISIKIVKEEKTQVTEADECGIGFDNFLDFEPNDIIEAYEN
modifications: bait human Fc-tagged dimer
B7: 45 (protein)
chain: GEEKLTKFDPVMIKEGELFGEVSYDCEYSGFLEIENDDILYYCFFVGEDDHNGLLLRKFHMDDMVWGIPMEVLITRKKINLYILTVDYILSKLILIYSFDEKIRITVFNNYMEESVMSEKISINYEILYKANMISYITYFYKNKKSLCVCGMNRNENILCTFSFDYGLTMKDDHTIEFFLKKKIPLGHYKMQVTFKETEVYFNLYNDLNEANFYELKCVKKQDEYICDIMNKIRETQEYNYKRYTYPSSEHNKYYNDHHNKQPQGKQGQQGGAPLPNLGEEENNFIYKHIVRNKYFQMIVFQKDQKCYLAWSFNSLNINDEITKEISSVPCSNVASYYRQERLIVTLKKNQLGSRNHFFLIYEKLTEKGVGCEFGVGGSLYVTKTFMNNACDMDINNMNVATTNYDEINFALIIPLSFQLNYATCFIWEENVDNNEERSSLYYLEEYTNEKEDIKVYTFYFYKYILIYKNFKKSTCTFESKNNEKLYISFRGDTYYKEYNCNILLDSCDFFLHTQSKINIAYDDDVWQVSEELYDGFVMYNGAYVSLYDVLSRSNAHGLIYIDGKENNAAINLNNIKNNNNNNNNNNNNNNAANNNNIANNANSNNAFGEHEKVITIIIPYGIPSTRTIKIEFLNKQNNEEKRWAYLRLQKNEYIMKKVIGINSADIFDLSYKYYKYNQEKIKFILNDFSETTYLGFICQTKEEIKKSLCTISLVDHSHKNMAINNLFKTNNHILPFLYDQSPPRKIQPYNQIISEFRFVLFKNFHLFLQENKINYILLKCMCSSSSSYINTQKNIELSYLITNEQVSHDFIHTPGILIRPRTNIAHNDYQKNNKGNHKGNNKANNKANDKDSNNNANNNANKNGNNHNDNNNNNQNKDIDINSNYAIHNNNEKVKRTKKKINDAPYDKQDEELPSYDFNDLLHEKKNGASVFDFNFVLFLFICITFF
modifications: bait human Fc-tagged dimer
B8: 87 (protein)
chain: LKKGNGDFIKKNGVFFQIDRDMNEPPYSVINVFYTESLLDDNLLNQLEKERKMGKYKTQNYFRKSLDNNKYFMEYSRKQKEQLEFLLE
modifications: bait human Fc-tagged dimer

The assay has as its target FGFR4 ectodomain (Homo sapiens, UniProt P22455). Briefly: AVEXIS normalised luminescence.
On to B1, for which the binding score was 1.02.

As for B2, the binding score is 1.24.

Take B3: the binding score is 0.976.

B4 came in with a binding score of 1.55.

Regarding B5, the binding score is 1.05.

With B6, the binding score is 1.02.

Take B7: the binding score turned out to be 1.05.

Molecule B8 came in with a binding score of 1.61.
